Data reported in the supplement of paper PMC11908140.

B1: library; numbered along this chain (parent)
chain: MRKPRAAVGSGHRKQAASQEGRQKHAKNNSQAKPSACDGLARQPEEVVLQASVSSYHLFRDVAEVTAFRGSLLSWYDQEKRDLPWRRRAEDEMDLDRRAYAVWVSEVMLQQTQVATVINYYTGWMQKWPTLQDLASASLEEVNQLWAGLGYYSRGRRLQEGARKVVEELGGHMPRTAETLQQLLPGVGRYTAGAIASIAFGQATGVVDGNVARVLCRVRAIGADPSSTLVSQQLWGLAQQLVDPARPGDFNQAAMELGATVCTPQRPLCSQCPVESLCRARQRVEQEQLLASGSLSGSPDVEECAPNTGQCHLCLPPSEPWDQTLGVVNFPRKASRKPPREESSATCVLEQPGALGAQILLVQRPNSGLLAGLWEFPSVTWEPSEQLQRKALLQELQRWAGPLPATHLRHLGEVVHTFSHIKLTYQVYGLALEGQTPVTTVPPGARWLTQEEFHTAAVSTAMKKVFRVYQGQQPGTCMGSKRSQVSSPCSRKKPRMGQQVLDNFFRSHISTDAHSLNSAAQ

Variants of: B1
Test: 8OG:A repair function score (normalized; synonymous = 0, nonsense = -1) (normalized log-likelihood score); higher = more repair activity (WT-like)
Conditions: with 8OG:A DNA repair reporter (GFP) in HEK-293 MUTYH KO cells
In short: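 Lentiviral MUTYH cDNA NNN codon-scan libraries in HEK-293 MUTYH knockout cells (10 pg/ml doxycycline) were co-transfected with an 8OG:A GFP repair reporter plus mCherry. At 72 h, viable mCherry+ cells were sorted into GFP+ (repair) and GFP− bins, three replicates per tile, then tile amplicons were sequenced. Per-tile Rosace fitness scores became a normalized repair function score anchored on synonymous and nonsense distributions. Synonymous medians were set to 0 and nonsense to -1; variants under 300 counts per million at the start were removed.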

Point of comparison: A513T, “8OG:A repair function score” value 0.000215. Against it:
- Q363M — lower, -0.284
- E45N — higher, 0.01
- L501E — higher, 0.0149
- L501G — higher, 0.00711
- A254F — higher, 0.057
- E319H — lower, -0.0143
- P331S — lower, -0.197
- W447G — lower, -1.04
- V438D — higher, 0.0779
- K164E — lower, -0.382
- S298K — lower, -0.0342
- T130I — lower, -0.27
- T130N — lower, -0.00511
- D243H — lower, -0.31
- D243Y — lower, -0.667
- R332H — lower, -0.163
- C304L — lower, -0.16
- C304V — lower, -0.331
- M496T — lower, -0.0187
- K390A — lower, -0.201
- Q435D — higher, 0.0234
- S344I — lower, -0.0592
- Q232P — lower, -0.285
- D77M — lower, -0.0782
- Q240Y — lower, -0.969
- V214Y — lower, -0.782
- V214I — lower, -0.231
- V214Q — lower, -0.911
- A89G — lower, -0.0247
- N251M — lower, -0.915
- N251V — lower, -0.84
- W124A — lower, -0.577
- W124E — lower, -1.01
- K80S — lower, -0.227
- P339L — lower, -0.113
- V414A — lower, -0.157
- V414D — lower, -0.769
- P316N — lower, -0.154
- S510F — lower, -0.00526
- L423Y — lower, -0.0686
- Y469G — lower, -0.451
- Y469L — lower, -0.314
- A345W — lower, -0.174
- E106T — lower, -1.01
- E106D — lower, -0.903
- G248L — lower, -1.01
- Y120T — higher, 0.0371
- N329F — lower, -0.345
- K481A — lower, -0.00494
- P365H — lower, -0.038
- T440G — lower, -0.145
- T440R — lower, -0.0347
- E285L — lower, -0.000221
- M108E — lower, -0.887
- M108G — lower, -1.18
- A305I — higher, 0.00729
- P174H — lower, -0.972
- L289C — lower, -0.0659
- L289D — lower, -0.0394
- E350D — lower, -0.304
- M462A — lower, -0.0163
- M462D — lower, -0.463
- M462Y — lower, -0.369
- M462Q — lower, -0.198
- L396H — lower, -0.886
- C269S — lower, -1.28
- A41K — lower, -0.0537
- V379M — lower, -0.148
- S384Q — lower, -0.345
- S384M — lower, -0.315
- R491V — higher, 0.0088
- R491M — higher, 0.0281
- S419K — higher, 0.0315
- A115T — lower, -0.106
- G293V — lower, -0.0545
- G293P — lower, -0.0254
- G293A — lower, -0.0268
- M478V — lower, -0.00439
- K337Y — lower, -0.118
- R283H — lower, -0.102
- P273H — lower, -0.569
- L325K — lower, -0.0528
- W321Y — lower, -0.123
